The target in data set [1] is PxP(Mcp1ct)-VABct(1,944-2,635)-His6 (C. thermophilum). Briefly: SEC; Superdex 200 gel filtration in buffer A (20 mM Hepes pH 7.8, 500 mM NaCl, 1 mM TCEP, 10% glycerol); monomer or dimer read from the elution profile. (In general: In gel filtration, larger molecules generally elute earlier.)
Data set [2] shares this target. Briefly: negative stain EM; class averages of purified constructs; monomer or dimer.
Data set [3] deals with the molecule itself. Briefly: SEC; Superdex 200 gel filtration in buffer A (20 mM Hepes pH 7.8, 500 mM NaCl, 1 mM TCEP, 10% glycerol); monomer or dimer read from the elution profile.

The text below walks through data of PMC8978259, “Structural and biochemical insights into lipid transport by VPS13 proteins” (The Journal of Cell Biology, 2022).

One may read the stoichiometry N as the number of molecules, sites or subunits per partner or assembly.

With PxP(Mcp1ct)-VABct(1,944-2,635)-His6, the stoichiometry N in data set [1] and in data set [2] was 2 in each case.

B1: PxP(Spo71sc)-VABsc(1,869-2,545)-His6 (other, S. cerevisiae, UniProt Q03868 380-400, looked up)
chain: SHLPFINILPPWPTELTEEERKPYQLVNDTELDFDVWIQDKTTEDNKNEVVLLKANTSLPWEFEDWRSIREKLDIDKSKNILGVCVSGQNYKTIMNIDATTEGENLHVLSPPRNNVHNRIVCEARCDENNVKIITFRSTLVIENTTSTEIELLVDSKDPNKPSLKYAIKPHQSKSVPVEYAYDSDIRIRPASEDIYDWSQQTLSWKSLLSNQMSIFCSSKEDSNQRFHFEIGAKYDEREPLAKIFPHMKIVVSASMTIENLLPADINFSIFDKREEKRTDFLKTGESMEVHHISLDSFLLMSVQPLQDEASASKPSIVNTPHKSPLNPEDSLSLTLSGGQNLLLKLDYKNIDGTRSKVIRIYSPYIIMNSTDRELYIQSSLLNIAQSKILLENEKRYTIPKMFSFDKEDDKSNRARIRFKESEWSSKLSFDAIGQSFDASVRIKNKEQESNLGINISEGKGKYLLSKVIEIAPRYIISNTLDIPIEVCETGSMDVQQIESNITKPLYRMRNIVDKQLVLKFLGGDSNWSQPFFIKNVGVTYLKVLKNSRHKLLKIEILLDKATIFIRIKDGGDRWPFSIRNFSDHDFIFYQRDPRKVSDPYKDDQSNESSSRSFKPIFYRIPSKSIMPYAWDFPTAKEKYLVLESGTRTREVRLAEIGELPPLRLDKRSKDKPAPIVGLHVVADDDMQALVIVNYKAN
notes: Spo71p of S. cerevisiae, Pro-X-Pro motif, residues 380-400; also called PXP-VABsc; source: E. coli BL21 (DE3), purified (Ni-NTA, Superdex 200)
As for B1, in data set [3], the “stoichiometry N” value amounted to 2.

B2: PxP(Mcp1sc)-VABsc(1,869-2,545)-His6 (other, S. cerevisiae, UniProt Q12106 2-20, looked up)
chain: IKLHEVPPEPVDPASLPHDKPYQLVNDTELDFDVWIQDKTTEDNKNEVVLLKANTSLPWEFEDWRSIREKLDIDKSKNILGVCVSGQNYKTIMNIDATTEGENLHVLSPPRNNVHNRIVCEARCDENNVKIITFRSTLVIENTTSTEIELLVDSKDPNKPSLKYAIKPHQSKSVPVEYAYDSDIRIRPASEDIYDWSQQTLSWKSLLSNQMSIFCSSKEDSNQRFHFEIGAKYDEREPLAKIFPHMKIVVSASMTIENLLPADINFSIFDKREEKRTDFLKTGESMEVHHISLDSFLLMSVQPLQDEASASKPSIVNTPHKSPLNPEDSLSLTLSGGQNLLLKLDYKNIDGTRSKVIRIYSPYIIMNSTDRELYIQSSLLNIAQSKILLENEKRYTIPKMFSFDKEDDKSNRARIRFKESEWSSKLSFDAIGQSFDASVRIKNKEQESNLGINISEGKGKYLLSKVIEIAPRYIISNTLDIPIEVCETGSMDVQQIESNITKPLYRMRNIVDKQLVLKFLGGDSNWSQPFFIKNVGVTYLKVLKNSRHKLLKIEILLDKATIFIRIKDGGDRWPFSIRNFSDHDFIFYQRDPRKVSDPYKDDQSNESSSRSFKPIFYRIPSKSIMPYAWDFPTAKEKYLVLESGTRTREVRLAEIGELPPLRLDKRSKDKPAPIVGLHVVADDDMQALVIVNYKAN
notes: Mcp1p of S. cerevisiae, Pro-X-Pro motif, residues 2-20; also called PXP-VABsc; source: E. coli BL21 (DE3), purified (Ni-NTA, Superdex 200)
For the molecule B2, the “stoichiometry N” value in data set [3] amounted to 2.

B3: PxP(Ypt35sc)-VABsc(1,869-2,545)-His6 (other, S. cerevisiae, UniProt P38815 2-22, looked up)
chain: SDKISFLPPEPIQLLDEDSTEKPYQLVNDTELDFDVWIQDKTTEDNKNEVVLLKANTSLPWEFEDWRSIREKLDIDKSKNILGVCVSGQNYKTIMNIDATTEGENLHVLSPPRNNVHNRIVCEARCDENNVKIITFRSTLVIENTTSTEIELLVDSKDPNKPSLKYAIKPHQSKSVPVEYAYDSDIRIRPASEDIYDWSQQTLSWKSLLSNQMSIFCSSKEDSNQRFHFEIGAKYDEREPLAKIFPHMKIVVSASMTIENLLPADINFSIFDKREEKRTDFLKTGESMEVHHISLDSFLLMSVQPLQDEASASKPSIVNTPHKSPLNPEDSLSLTLSGGQNLLLKLDYKNIDGTRSKVIRIYSPYIIMNSTDRELYIQSSLLNIAQSKILLENEKRYTIPKMFSFDKEDDKSNRARIRFKESEWSSKLSFDAIGQSFDASVRIKNKEQESNLGINISEGKGKYLLSKVIEIAPRYIISNTLDIPIEVCETGSMDVQQIESNITKPLYRMRNIVDKQLVLKFLGGDSNWSQPFFIKNVGVTYLKVLKNSRHKLLKIEILLDKATIFIRIKDGGDRWPFSIRNFSDHDFIFYQRDPRKVSDPYKDDQSNESSSRSFKPIFYRIPSKSIMPYAWDFPTAKEKYLVLESGTRTREVRLAEIGELPPLRLDKRSKDKPAPIVGLHVVADDDMQALVIVNYKAN
notes: Ypt35p of S. cerevisiae, Pro-X-Pro motif, residues 2-22; also called PXP-VABsc; source: E. coli BL21 (DE3), purified (Ni-NTA, Superdex 200)
For B3, in data set [3], the “stoichiometry N” value was determined as 2.
